Experimental findings from paper PMC6879534, “Structural basis for DNA unwinding at forked dsDNA by two coordinating Pif1 helicases” (Nature Communications, 2019) are described below.

Series [1] concerns the target BaPif1 E323A/K405A (Bacteroides sp (abstract); Bacterioides fragilis (methods)).
Series [2] deals with BaPif1 F379A (Bacteroides fragilis (title/abstract: Bacteroides sp)) (UniProt A0A373G551). Kind of series: fluorescence polarization. Conditions: Fluorescence polarization: 2.5 nM T15-3'F, buffer and temperature not in the material; crystals: 80 mM NaCl, 40 mM sodium cacodylate pH 6.0, 35% MPD, 12 mM ….
In series [3] the target is BaPif1 wild type (Bacteroides fragilis (title/abstract: Bacteroides sp)) (UniProt A0A373G551). Kind of series: fluorescence polarization. Conditions: Fluorescence polarization: 2.5 nM T15-3'F, buffer and temperature not in the material; crystals: 80 mM NaCl, 40 mM sodium cacodylate pH 6.0, 35% MPD, 12 mM ….
The target in series [4] is BaPif1 H236A (Bacteroides fragilis (title/abstract: Bacteroides sp)) (UniProt A0A373G551). Kind of series: fluorescence polarization. Conditions: Fluorescence polarization: 2.5 nM T15-3'F, buffer and temperature not in the material; crystals: 80 mM NaCl, 40 mM sodium cacodylate pH 6.0, 35% MPD, 12 mM ….
The subject of series [5] is BaPif1. Conditions: ssDNA-stimulated ATPase.
Series [6] has as its target BaPif1 (Bacteroides fragilis, UniProt Z9XEH3VG65). As to conditions: ssDNA-stimulated ATPase.

Chain of BaPif1 (5FHD_1 entry or part of it E323K): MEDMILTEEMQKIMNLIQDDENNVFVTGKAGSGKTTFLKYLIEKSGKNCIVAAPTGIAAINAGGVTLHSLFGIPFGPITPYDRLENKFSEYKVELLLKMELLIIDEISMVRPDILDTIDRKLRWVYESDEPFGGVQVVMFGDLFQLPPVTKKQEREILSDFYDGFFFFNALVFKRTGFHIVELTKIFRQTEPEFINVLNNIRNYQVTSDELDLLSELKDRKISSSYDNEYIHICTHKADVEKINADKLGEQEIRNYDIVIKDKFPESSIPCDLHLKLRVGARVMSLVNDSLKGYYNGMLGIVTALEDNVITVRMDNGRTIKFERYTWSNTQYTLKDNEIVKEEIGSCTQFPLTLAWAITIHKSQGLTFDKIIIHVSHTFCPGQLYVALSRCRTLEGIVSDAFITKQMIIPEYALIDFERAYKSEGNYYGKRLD

For BaPif1 E323A/K405A (enzyme), in series [1], the rate of unwinding of the leading duplex (rapid chemical quench flow, single turnover) is 33 s⁻¹ and the rate of unwinding of the parental duplex (rapid chemical quench flow, single turnover) amounted to 31 s⁻¹.
Consider TTTTTTTTTTTTTTT [T15-3'F], for which the values for the Kd in series [2], in series [3] and in series [4] were 250 nM, 74 nM and 200 nM, respectively.
With `Nc1ncnc2c1ncn2[C@@H]1O[C@H](COP(=O)(O)OP(=O)(O)OP(=O)(O)O)[C@@H](O)[C@H]1O` [ATP], the ATP hydrolysis rate result was “The rates of ATP hydrolysis by both the E323A/K405A and E323K variants” in series [5]; “only slightly increased relative to the wild type enzyme” in series [6].
